Experimental data taken from PMC9082959, “Mechanism of Assembly of the Non-Covalent Spectrin Tetramerization Domain from Intrinsically Disordered Partners” (Journal of molecular biology, 2013).
Residue numbers refer to the chain shown, from its start.

Legend:
Assay in all cases: ITC; β16β17 at 25–50 μM in the cell titrated with 15–20 injections to 2–2.5 eq of α0α1; one-site binding model; PBS (50 mM sodium phosphate, 150 mM NaCl, pH 7.04), 25 °C; mutants only against the wild-type partner
Details in all cases: both partners purified
[1] = molecular target: T1, β16β17 K67G (human, UniProt P11277 1898-2083, K2070G)
T1 construct: erythrocyte β-spectrin, human, residues 1898-2083 (β16β17); mutant of m2; also called K2070G; source: E. coli C41(DE3), purified (Ni2+ agarose, thrombin cleavage, gel filtration)
T1 sequence (looked up): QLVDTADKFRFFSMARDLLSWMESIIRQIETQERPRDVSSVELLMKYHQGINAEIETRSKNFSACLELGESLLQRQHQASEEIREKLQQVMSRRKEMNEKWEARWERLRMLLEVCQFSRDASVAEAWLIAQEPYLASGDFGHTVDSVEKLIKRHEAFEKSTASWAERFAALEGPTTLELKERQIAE

[2] = molecular target: T2, β16β17 A50G (human, UniProt P11277 1898-2083, A2053G)
T2 construct: erythrocyte β-spectrin, human, residues 1898-2083 (β16β17); mutant of m2; also called A2053G; source: E. coli C41(DE3), purified (Ni2+ agarose, thrombin cleavage, gel filtration)
T2 sequence (looked up): T1 sequence (looked up) with A156G, G173K

[3] = molecular target: T3, β16β17 S16A (human, UniProt P11277 1898-2083, S2019A)
T3 construct: erythrocyte β-spectrin, human, residues 1898-2083 (β16β17); mutant of m2; also called S2019A; source: E. coli C41(DE3), purified (Ni2+ agarose, thrombin cleavage, gel filtration)
T3 sequence (looked up): T1 sequence (looked up) with S122A, G173K

[4] = molecular target: T4, β16β17 Y28L (human, UniProt P11277 1898-2083, Y2031L)
T4 construct: erythrocyte β-spectrin, human, residues 1898-2083 (β16β17); mutant of m2; also called Y2031L; source: E. coli C41(DE3), purified (Ni2+ agarose, thrombin cleavage, gel filtration)
T4 sequence (looked up): T1 sequence (looked up) with Y134L, G173K

[5] = molecular target: T5, β16β17 F62A (human, UniProt P11277 1898-2083, F2065A)
T5 construct: erythrocyte β-spectrin, human, residues 1898-2083 (β16β17); mutant of m2; also called F2065A; source: E. coli C41(DE3), purified (Ni2+ agarose, thrombin cleavage, gel filtration)
T5 sequence (looked up): T1 sequence (looked up) with F168A, G173K

[6] = molecular target: T6, β16β17 L22A (human, UniProt P11277 1898-2083, L2025A)
T6 construct: erythrocyte β-spectrin, human, residues 1898-2083 (β16β17); mutant of m2; also called L2025A; source: E. coli C41(DE3), purified (Ni2+ agarose, thrombin cleavage, gel filtration)
T6 sequence (looked up): T1 sequence (looked up) with L128A, G173K

Ka [1]: 140000 M⁻¹
Ka [2]: 163000 M⁻¹
Ka [3]: 490000 M⁻¹
Ka [4]: 170000 M⁻¹
Ka [5]: 13000 M⁻¹
Ka [6]: 6000 M⁻¹
B1: α0α1 (erythrocyte α-spectrin residues 2–163), wild type (domain or fragment, human, UniProt P02549 2-163, looked up)
chain: EQFPKETVVESSGPKVLETAEEIQERRQEVLTRYQSFKERVAERGQKLEDSYHLQVFKRDADDLGKWIMEKVNILTDKSYEDPTNIQGKYQKHQSLEAEVQTKSRLMSELEKTREERFTMGHSAHEETKAHIEELRHLWDLLLELTLEKGDQLLRALKFQQY
notes: synthetic gene (GenScript) in a modified pRSETA plasmid; also called α1α0; source: E. coli C41(DE3), purified (Ni2+ agarose, thrombin cleavage, gel filtration)
